The target of test [1] is T1, biotin-labeled mouse ADM (mouse, not fully specified; biotin label (named mouse ADM-C-biotin in Example 1.4; position of the biotin not stated for the other lots)).
T1 construct: Synthetic peptide; also called mouse ADM-C-biotin; mADM-Biotin
T1 peptide: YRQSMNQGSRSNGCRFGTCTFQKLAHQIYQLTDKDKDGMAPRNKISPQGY
Nature of the test: BLI (Octet RED96e), biotinylated antigen on SA sensor, antibody 100 nM, 1:1 fit. The procedure:
(§1) The affinity of antibodies 2004hz00, 2004hz97, and 2004hz99 for biotin-labeled human and mouse ADM (human ADM Cat. No. 894757, mouse ADM Cat. No. 894758, synthesized by GLBiochem) was determined by adopting Octet RED96e (Fortebio). The antigens and the antibodies were all diluted with 1× PBST (1× PBS: Sangon, B548117-0500; 0.02% Tween 20: sigma, P1379), the concentration of the antibody used was 100 nM, and the concentration of the antigen used was 2 μg/mL. The candidate antibody sample was added to a 96-well plate (Greiner bio-one, 655209) at 200 μL/well, the software parameters were set, the temperature was 30° C., and the standard kinetic signal was collected at a frequency of 5.0 Hz; and an SA sensor (Fortebio, Cat. No. 18-5020) was pre-wetted with 1× PBST for 10 min and then tested on a machine.
(§2) The equilibrium dissociation constants (KD) of the antibodies were calculated by measuring the association rates (Kon) and the dissociation rates (Koff) of the antigen-antibody in a 1:1 binding manner by adopting the Data Analysis 12.0 software from Fortebio.
(In general: Biolayer interferometry detects binding as a change in optical thickness at a sensor tip.)

The target in test [2] is T2, biotin-labeled human ADM (human, not fully specified; biotin label (named human ADM-C-biotin in Example 1.4; position of the biotin not stated for the other lots)).
T2 construct: Synthetic peptide; also called human ADM-C-biotin; hADM-Biotin
T2 peptide: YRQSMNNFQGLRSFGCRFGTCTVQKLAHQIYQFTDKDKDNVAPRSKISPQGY
Described as above. As for the experimental part:
as §1, §2

Test [3] deals with T1, biotin-labeled mouse ADM. The test is described as follows: BLI (Octet RED96e), as in Example 3. As for the experimental part: as §1, §2
(§3) Similar to Example 3, the affinity of the affinity-matured antibodies Ab2004.Am31 -Ab2004.Am40 and the parent antibody Ab2004.Am01 for human and mouse ADM was further determined, respectively, and the results are shown in Table 10. It can be seen from Table 10 […].

Test [4] has as its target T2, biotin-labeled human ADM. Nature of the test: BLI (Octet RED96e), as in Example 3. As for the experimental part:
as §1, §2, §3

Changes are numbered by the printed parent chain.

B1: chimeric antibody 2004hz00 (antibody, human IgG1, kappa)
heavy: not shown
light: DVLMTQTPFSLPVSLGDQASISCRSSQSIIDSDGNTYLEWYLQKPGQSPKLLIYKVSNRFSGVPDRFSGSGSGTDFTLRISRVEAEDLGVYYCFQGSHFPYTFAGGTKLELKRTVAAPSVFIFPPSDEQLKSGTASVVCLLNNFYPREAKVQWKVDNALQSGNSQESVTEQDSKDSTYSLSSTLTLSKADYEKHKVYACEVTHQGLSSPVTKSFNRGEC
notes: Human IgG1/kappa
In test [1], B1 had a Kd of 0.454 nM, a Response value of 3.19, a koff of 0.000196 s⁻¹ and a kon of 432000 M⁻¹ s⁻¹. In test [2], this molecule returned a Kd of 0.457 nM, a Response value of 2.69, a koff of 0.000201 s⁻¹ and an on-rate (kon) of 441000 M⁻¹ s⁻¹.

B2: Enibarcimab (antibody, V domains shown)
VH: QVQLVQSGAEVKKPGSSVKVSCKASGYTFSRYWIEWVRQAPGQGLEWIGEILPGSGSTNYNQKFQGRVTITADTSTSTAYMELSSLRSEDTAVYYCTEGYEYDGFDYWGQGTTVTVSS
VL: DVVLTQSPLSLPVTLGQPASISCRSSQSIVYSNGNTYLEWYLQRPGQSPRLLIYRVSNRFSGVPDRFSGSGSGTDFTLKISRVEAEDVGVYYCFQGSHIPYTFGGGTKLEIKR
In test [3], B2 displayed a Kd of 0.497 nM, a Response value of 2.75, a koff of 0.000297 s⁻¹ and an association rate constant (kon) of 597000 M⁻¹ s⁻¹. For the same molecule, in test [4], the dissociation constant (Kd) came to 0.567 nM, the Response value stood at 2.07, the koff was 0.000382 s⁻¹ and the on-rate (kon) was found to be 673000 M⁻¹ s⁻¹.

B3: Ab2004.Am36 (IgG1 antibody) (antibody, V domains shown)
VH: QVQLVQSGAEVKKPGASVKVSCKASGYTFTQYGIAWVRQAPGQGLEWMGWISAYQGNTNYAQKLQGRVTMTRDTSTSTAYMELRSLRSDDTAVYYCAREGRWGGSFNIWGQGTMVTVSS
VL: DIQMTQSPSSLSASVGDRVTITCRASQGISSYLAWYQQKPGKAPKLLIYDASNVDTGVPSRFSGSGSGTDFTFTISSLQPEDIATYYCQQYDNLPLTFGGGTKVEIKR
notes: Expressed in CHO cells, human IgG1/kappa
B3: in test [3], the Kd worked out at 0.518 nM, the Response value stood at 2.75, the koff worked out at 0.000221 s⁻¹ and the kon came out at 427000 M⁻¹ s⁻¹. Besides, in test [4], the Kd was 0.291 nM, the Response value is 2.7, the koff was 0.000108 s⁻¹ and the kon was 372000 M⁻¹ s⁻¹.

B4: Ab2004.Am35 (IgG1 antibody) (antibody, V domains shown)
VH: B3 VH
VL: B3 VL with A51V, N53I, V54L, T56A
notes: as for B3
In test [3], B4 yielded a Kd of 0.452 nM, a Response value of 2.74, a koff of 0.000206 s⁻¹ and a kon of 456000 M⁻¹ s⁻¹. Besides, in test [4], binding was characterised by a dissociation constant (Kd) of 0.281 nM, the Response value was 1.96, the koff was 0.000119 s⁻¹ and the kon was found to be 423000 M⁻¹ s⁻¹.

B5: Ab2004.Am34 (IgG1 antibody) (antibody, V domains shown)
VH: B3 VH with Q31H
VL: B3 VL with A51V, N53I, V54L, T56A
notes: as for B3
In test [3], B5 yielded a dissociation constant Kd of 0.451 nM, a Response value of 2.78, a koff of 0.000222 s⁻¹ and an association rate constant (kon) of 492000 M⁻¹ s⁻¹. In test [4], this molecule showed a Kd of 0.154 nM, a Response value of 2.61, a koff of 6.81e-05 s⁻¹ and an on-rate (kon) of 444000 M⁻¹ s⁻¹.

B6: Ab2004.Am31 (IgG1 antibody) (antibody, V domains shown)
VH: B3 VH
VL: B3 VL with Q27E, S31E, V54L, D55E
notes: as for B3
In test [3], B6 displayed a Kd of 0.412 nM, a Response value of 2.81, a koff of 0.000221 s⁻¹ and a kon of 537000 M⁻¹ s⁻¹. Also, in test [4], the Kd came out at 0.288 nM, the Response value worked out at 2.64, the koff is 0.000141 s⁻¹ and the on-rate constant (kon) came out at 491000 M⁻¹ s⁻¹.

B7: Ab2004.Am38 (IgG1 antibody) (antibody, V domains shown)
VH: B3 VH with Q31S, A35S, A53P, Q55T, N57K
VL: B3 VL with A51T, N53D, V54L
notes: as for B3
In test [3], B7 had a Kd of 0.467 nM, a Response value of 2.88, an off-rate (koff) of 0.000342 s⁻¹ and a kon of 733000 M⁻¹ s⁻¹. In test [4], this molecule returned a Kd of 0.255 nM, a Response value of 2.83, a koff of 0.00016 s⁻¹ and a kon of 626000 M⁻¹ s⁻¹.

B8: Ab2004.Am32 (IgG1 antibody) (antibody, V domains shown)
VH: B3 VH
VL: B3 VL with S26A, Q27E, S30G, V54L, D55E
notes: as for B3
In test [3], B8 displayed a Kd of 0.474 nM, a Response value of 2.76, a koff of 0.000219 s⁻¹ and a kon of 461000 M⁻¹ s⁻¹. In test [4], this molecule yielded a Kd of 0.34 nM, a Response value of 2.53, an off-rate (koff) of 0.000146 s⁻¹ and a kon of 430000 M⁻¹ s⁻¹.

B9: Ab2004.Am40 (IgG1 antibody) (antibody, V domains shown)
VH: B3 VH
VL: B3 VL with V54L, D55E, N93D, T97S
notes: as for B3
In test [3], B9 had a Kd of 0.492 nM, a Response value of 2.65, a koff of 0.000253 s⁻¹ and a kon of 513000 M⁻¹ s⁻¹. In test [4], this molecule displayed a Kd of 0.352 nM, a Response value of 2.66, a koff of 0.000158 s⁻¹ and a kon of 449000 M⁻¹ s⁻¹.

B10: Ab2004.Am39 (IgG1 antibody) (antibody, V domains shown)
VH: B3 VH with Q31H
VL: B3 VL with V54L, D55E, N93D, P95D
notes: as for B3
For B10, in test [3], the Kd worked out at 0.489 nM, the Response value was 2.7, the koff worked out at 0.000266 s⁻¹ and the kon came to 543000 M⁻¹ s⁻¹. In test [4], this molecule had an equilibrium dissociation constant (Kd) of 0.178 nM, a Response value of 2.57, a koff of 8.33e-05 s⁻¹ and an on-rate (kon) of 468000 M⁻¹ s⁻¹.

B11: fully human antibody Ab2004.Am01 (expressed antibody) (antibody, V domains shown)
VH: B3 VH with Q31S, A35S
VL: DIQMTQSPSSLSASVGDRVTITCRASQGISSYLAWYQQKPGKAPKLLIYDASNLETGVPSRFSGSGSGTDFTFTISSLQPEDIATYYCQQYDNLPLTFGGGTKVEIK
notes: also called parent antibody Ab2004.Am01
For B11, in test [3], binding was put at a Kd of 2.21 nM, the Response value was 2.35, the koff amounted to 0.000956 s⁻¹ and the kon is 434000 M⁻¹ s⁻¹. Besides, in test [4], binding was characterised by a dissociation constant (Kd) of 0.766 nM, the Response value is 2.34, the off-rate (koff) is 0.000233 s⁻¹ and the kon came out at 305000 M⁻¹ s⁻¹.

B12: Ab2004.Am37 (IgG1 antibody) (antibody, V domains shown)
VH: B3 VH with Q31S, A35S, A53P, Q55T, N57K
VL: B3 VL with A51V, N53I, V54L, T56A
notes: as for B3
With B12, in test [3], binding was characterised by a dissociation constant (Kd) of 0.469 nM, the Response value came out at 2.85, the koff was 0.00033 s⁻¹ and the kon turned out to be 703000 M⁻¹ s⁻¹. Further, in test [4], the Kd worked out at 0.256 nM, the Response value was 2.88, the koff was determined as 0.00015 s⁻¹ and the kon was determined as 587000 M⁻¹ s⁻¹.

B13: Ab2004.Am33 (IgG1 antibody) (antibody, V domains shown)
VH: B3 VH with Q31S, A35S, A53P, Q55S
VL: B3 VL with Q27E, S31E, V54L, D55E
notes: as for B3
With B13, in test [3], the Kd was determined as 0.474 nM, the Response value amounted to 2.8, the koff is 0.000365 s⁻¹ and the kon amounted to 769000 M⁻¹ s⁻¹. Moreover, in test [4], the Kd came out at 0.316 nM, the Response value was found to be 2.63, the koff amounted to 0.000214 s⁻¹ and the kon amounted to 676000 M⁻¹ s⁻¹.

B14: humanized antibody 2004hz97 (antibody, human IgG1, kappa)
heavy: not shown
light: DVVMTQSPLSLPVTLGQPASISCRSSQSIIDSDGNTYLEWYQQRPGQSPRLLIYKVSNRFSGVPDRFSGSGSGTDFTLKISRVEAEDFGVYYCFQGSHFPYTFGQGTKLEIKRTVAAPSVFIFPPSDEQLKSGTASVVCLLNNFYPREAKVQWKVDNALQSGNSQESVTEQDSKDSTYSLSSTLTLSKADYEKHKVYACEVTHQGLSSPVTKSFNRGEC
notes: Human IgG1/kappa
In test [1], B14 yielded a Kd of 0.489 nM, a Response value of 3, a koff of 0.000231 s⁻¹ and a kon of 472000 M⁻¹ s⁻¹. Besides, in test [2], the Kd came out at 0.546 nM, the Response value is 2.39, the off-rate constant (koff) is 0.000252 s⁻¹ and the kon came to 461000 M⁻¹ s⁻¹.

Usually Kd stands for the constant that tells how readily two partners part at equilibrium. Read a low Kd as higher affinity. By koff is commonly meant the rate constant with which the complex falls apart. The kon is a measure of how fast the partners come together. A higher kon goes with faster complex formation.
